Results as given in publication doi:10.1101/754457.

Legend:
[1] = target: Mto2-134AAA (full-length, recombinant) (S. pombe) (UniProt Q9USP7); assay: SEC-MALS
[2] = target: Mto2-134A136A (full-length, recombinant) (S. pombe) (UniProt Q9USP7); assay: SEC-MALS

stoichiometry N [1] | stoichiometry N [2] | Substance
2 |  | Mto2-134AAA (full-length, recombinant) (from UniProt Q9USP7 1-397) (natural protein)
 | 2 | Mto2-134A136A (full-length, recombinant) (from UniProt Q9USP7 1-397) (natural protein)
